This note sets out measurements from publication PMC5787697, “Transcriptome-wide identification of the RNA-binding landscape of the chromatin-associated protein PARP1 reveals functions in RNA biogenesis”.

The target of data set [1] is T1, PARP1-FL (human, UniProt P09874 1-1014). As to the kind of experiment: EMSA; monomer-equivalent K, n=2.17±0.15; 25 mM Tris pH 7.5, 75 mM NaCl, 50 mM arginine, 0.1 mM TCEP, 0.1 ug/ul BSA, room temperature 30 min; 0.05 uM probe, 0-2.5 uM protein; native 10% PAGE in TBE. The settings on record: protein: recombinant; tags: His; chain copies: 2; label: 32P; single strand.
T1 sequence (P09874 whole entry): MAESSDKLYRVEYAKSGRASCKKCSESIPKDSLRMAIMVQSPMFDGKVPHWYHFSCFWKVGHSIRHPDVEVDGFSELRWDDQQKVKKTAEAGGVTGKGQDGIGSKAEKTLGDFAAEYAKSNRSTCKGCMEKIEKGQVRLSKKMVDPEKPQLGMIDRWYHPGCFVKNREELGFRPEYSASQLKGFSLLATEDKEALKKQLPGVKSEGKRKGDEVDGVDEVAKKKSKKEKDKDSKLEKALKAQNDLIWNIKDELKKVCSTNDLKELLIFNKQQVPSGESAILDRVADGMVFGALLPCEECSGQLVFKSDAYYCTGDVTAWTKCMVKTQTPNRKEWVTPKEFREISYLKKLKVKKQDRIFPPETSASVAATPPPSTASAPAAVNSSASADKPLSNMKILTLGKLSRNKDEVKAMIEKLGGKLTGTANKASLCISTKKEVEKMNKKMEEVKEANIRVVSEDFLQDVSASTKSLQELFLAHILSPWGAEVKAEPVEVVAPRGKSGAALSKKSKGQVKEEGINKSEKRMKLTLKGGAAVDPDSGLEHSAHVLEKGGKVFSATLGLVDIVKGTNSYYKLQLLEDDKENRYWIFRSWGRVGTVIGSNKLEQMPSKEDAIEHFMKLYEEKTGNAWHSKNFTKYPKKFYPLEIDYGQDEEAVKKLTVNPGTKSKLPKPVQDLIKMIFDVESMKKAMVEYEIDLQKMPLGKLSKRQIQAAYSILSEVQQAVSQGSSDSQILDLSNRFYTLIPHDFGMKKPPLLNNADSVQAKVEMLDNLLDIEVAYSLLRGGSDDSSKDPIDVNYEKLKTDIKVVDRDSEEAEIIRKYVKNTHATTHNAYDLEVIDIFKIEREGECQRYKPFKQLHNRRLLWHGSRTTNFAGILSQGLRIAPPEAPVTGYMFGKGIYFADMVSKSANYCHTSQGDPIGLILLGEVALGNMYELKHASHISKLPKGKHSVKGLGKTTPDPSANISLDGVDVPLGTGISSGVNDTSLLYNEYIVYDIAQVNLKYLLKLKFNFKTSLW

Data set [2] deals with T2, PARP1-ΔCAT (human, UniProt P09874 1-662). Description: EMSA; monomer-equivalent K, n=2.77±0.13; 25 mM Tris pH 7.5, 75 mM NaCl, 50 mM arginine, 0.1 mM TCEP, 0.1 ug/ul BSA, room temperature 30 min; 0.05 uM probe, 0-2.5 uM protein; native 10% PAGE in TBE. As to conditions: protein: recombinant; tags: His; chain copies: 2; label: 32P; single strand. In general terms: Mobility shift assays separate free from complexed probe on a gel.
T2 sequence (P09874 1-662, stated change not applied): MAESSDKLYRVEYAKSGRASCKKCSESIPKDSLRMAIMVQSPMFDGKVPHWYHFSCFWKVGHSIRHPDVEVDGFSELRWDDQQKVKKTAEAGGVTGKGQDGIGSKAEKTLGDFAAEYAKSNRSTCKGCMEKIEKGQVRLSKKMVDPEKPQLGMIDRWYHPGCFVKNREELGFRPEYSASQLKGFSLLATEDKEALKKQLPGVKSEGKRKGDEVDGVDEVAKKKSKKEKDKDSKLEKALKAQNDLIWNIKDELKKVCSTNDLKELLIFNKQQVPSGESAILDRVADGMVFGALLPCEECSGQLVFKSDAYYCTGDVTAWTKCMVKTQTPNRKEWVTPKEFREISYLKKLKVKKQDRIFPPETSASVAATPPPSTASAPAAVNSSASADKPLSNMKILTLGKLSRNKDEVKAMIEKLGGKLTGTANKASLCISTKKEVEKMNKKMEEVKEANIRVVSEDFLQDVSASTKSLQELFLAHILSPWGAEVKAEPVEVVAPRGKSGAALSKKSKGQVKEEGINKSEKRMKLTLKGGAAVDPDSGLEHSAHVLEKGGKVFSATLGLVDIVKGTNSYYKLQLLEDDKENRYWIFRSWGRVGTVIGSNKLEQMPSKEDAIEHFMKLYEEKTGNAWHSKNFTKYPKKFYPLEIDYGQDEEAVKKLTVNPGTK

Data set [3] has as its target T3, PARP1-ΔZn1ΔZn2 (human, UniProt P09874 216-1014). Description: EMSA; monomer-equivalent K, n=2.16±0.19; 25 mM Tris pH 7.5, 75 mM NaCl, 50 mM arginine, 0.1 mM TCEP, 0.1 ug/ul BSA, room temperature 30 min; 0.05 uM probe, 0-2.5 uM protein; native 10% PAGE in TBE. As to conditions: protein: recombinant; tags: His; chain copies: 2; label: 32P; single strand.
For data set [4], the target named is T1, PARP1-FL. As to the kind of experiment: EMSA; monomer-equivalent K, n=1.70±0.14; 25 mM Tris pH 7.5, 75 mM NaCl, 50 mM arginine, 0.1 mM TCEP, 0.1 ug/ul BSA, room temperature 30 min; 0.05 uM probe, 0-2.5 uM protein; native 10% PAGE in TBE. The settings on record: protein: recombinant; tags: His; chain copies: 2; label: 32P; single strand.
Data set [5] concerns the target T2, PARP1-ΔCAT. Description: EMSA; monomer-equivalent K, n=2.04±0.13; 25 mM Tris pH 7.5, 75 mM NaCl, 50 mM arginine, 0.1 mM TCEP, 0.1 ug/ul BSA, room temperature 30 min; 0.05 uM probe, 0-2.5 uM protein; native 10% PAGE in TBE. The settings on record: protein: recombinant; tags: His; chain copies: 2; label: 32P; single strand.
The target of data set [6] is T3, PARP1-ΔZn1ΔZn2. As to the kind of experiment: EMSA; monomer-equivalent K, n=2.04±0.15; 25 mM Tris pH 7.5, 75 mM NaCl, 50 mM arginine, 0.1 mM TCEP, 0.1 ug/ul BSA, room temperature 30 min; 0.05 uM probe, 0-2.5 uM protein; native 10% PAGE in TBE. The settings on record: protein: recombinant; tags: His; chain copies: 2; label: 32P; single strand.
Data set [7] has as its target T3, PARP1-ΔZn1ΔZn2. As to the kind of experiment: competition EMSA; vs N1 in same reaction; 25 mM Tris pH 7.5, 75 mM NaCl, 50 mM arginine, 0.1 mM TCEP, 0.1 ug/ul BSA, room temperature 30 min; 0.05 uM probe, 0-2.5 uM protein; native 10% PAGE in TBE. As to conditions: protein: recombinant; tags: His; chain copies: 2; label: 32P; single strand.
Data set [8] deals with T2, PARP1-ΔCAT. Described as above. The settings on record: protein: recombinant; tags: His; chain copies: 2; label: 32P; single strand.
Data set [9] has as its target T1, PARP1-FL. The description is as above. The settings on record: protein: recombinant; tags: His; label: 32P; single strand.

T3 sequence (P09874 216-1014, stated change not applied): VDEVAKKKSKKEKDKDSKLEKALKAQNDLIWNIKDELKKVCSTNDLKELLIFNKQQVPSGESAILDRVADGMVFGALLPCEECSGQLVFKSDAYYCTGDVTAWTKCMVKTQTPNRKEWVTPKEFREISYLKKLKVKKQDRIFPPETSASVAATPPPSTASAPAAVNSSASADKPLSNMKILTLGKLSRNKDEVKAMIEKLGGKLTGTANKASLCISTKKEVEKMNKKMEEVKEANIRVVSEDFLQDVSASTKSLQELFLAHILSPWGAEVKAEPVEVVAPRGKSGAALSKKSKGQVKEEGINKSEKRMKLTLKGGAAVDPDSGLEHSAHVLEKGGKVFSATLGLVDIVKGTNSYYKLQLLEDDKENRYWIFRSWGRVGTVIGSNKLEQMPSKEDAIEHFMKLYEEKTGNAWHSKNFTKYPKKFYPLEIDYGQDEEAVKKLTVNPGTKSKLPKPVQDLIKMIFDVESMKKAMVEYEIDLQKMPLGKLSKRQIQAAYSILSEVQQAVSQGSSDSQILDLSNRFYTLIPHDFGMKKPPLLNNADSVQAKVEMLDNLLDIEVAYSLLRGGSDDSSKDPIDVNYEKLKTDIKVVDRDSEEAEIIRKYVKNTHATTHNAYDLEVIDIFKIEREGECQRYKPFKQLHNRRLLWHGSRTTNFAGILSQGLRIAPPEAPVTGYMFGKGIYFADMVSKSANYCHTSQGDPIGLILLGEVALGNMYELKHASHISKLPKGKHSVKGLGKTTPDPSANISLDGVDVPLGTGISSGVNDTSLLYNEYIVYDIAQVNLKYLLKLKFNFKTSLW

B1: 24-mer ssRNA (ssRNA)
RNA: CGUACGCGGAAUAGUUUAAACUGU
B1: the Ka stood at 2.88e+06 M⁻¹ with PARP1-FL [1], 2.91e+06 M⁻¹ with PARP1-ΔCAT [2] and 1.91e+06 M⁻¹ with PARP1-ΔZn1ΔZn2 [3].

B2: 20-mer ssRNA (ssRNA)
RNA: CCGUACGCGGGUUUAAACGA
As to B2, the Ka is 2.43e+06 M⁻¹ with PARP1-FL [4], 770000 M⁻¹ in the data set with PARP1-ΔCAT [5] and 1.13e+06 M⁻¹ in the data set with PARP1-ΔZn1ΔZn2 [6].

B3: 19-mer ssDNA (ssDNA)
DNA: TAGGCACCGGCATCTTGAC
For B3, the binding signal worked out at 0.0153 ± 0.021 KDNA/KRNA with PARP1-ΔZn1ΔZn2 [7], 15.7 ± 3.9 KDNA/KRNA with PARP1-ΔCAT [8] and 25.3 ± 3 KDNA/KRNA in the data set with PARP1-FL [9].
